Where no end group is shown, it is not given here. The star is where a group is joined. Bz‑MA = benzoylmercaptoacetyl chelator, O=C(SCC(=O)*)c1ccccc1; Picolinoyl = O=C(c1ccccn1)*; Acm = CC(=O)NC*
Experiments:
[1] = tested on: rat inflammation model (E. coli, left hindleg); assay: Biodistribution and imaging of Tc-99m labelled conjugates in a rat inflammation model; conditions: for Blood / G.I. tract / Urine: Tc-99m labelled conjugate i.v.; for inflam muscle: inflamed muscle (left leg); for Uninfl muscle: non-inflamed muscle (right leg); for Inflam:Uninfl: ratio inflamed to uninflamed muscle
[2] = in vivo; cited from earlier work

With “PicSerCys(Acm) Gly TKPR: chelator PicSerCys(Acm), linking group Gly, native tuftsin peptide TKPR (Seq ID no: 1); comparison conjugate ({Picolinoyl-Ser-Cys(Acm)}-GTKPR)” the Blood ([1]; Time 35 min) was 0.268 % dose/g, the G.I. tract ([1]; Time 35 min) was 22.8 and the Urine ([1]; Time 35 min) was 22.8. For the same substance, the inflam muscle ([1]; Time 35 min) was 0.120 % dose/g, the Uninfl muscle ([1]; Time 35 min) was 0.040 % dose/g and the “Inflam:Uninfl” value ([1]; Time 35 min) was 3.0.
Work on “PicSerCys(Acm) Gly RTKPR: chelator PicSerCys(Acm), linking group Gly, peptide RTKPR (Seq ID no: 11); comparison conjugate ({Picolinoyl-Ser-Cys(Acm)}-GRTKPR)” yielded a Blood ([1]; Time 35 min) of 0.169 % dose/g, a G.I. tract ([1]; Time 35 min) of 15.0 and a Urine ([1]; Time 35 min) of 45.4. For the same substance, the inflam muscle ([1]; Time 35 min) was 0.099 % dose/g, the Uninfl muscle ([1]; Time 35 min) was 0.033 % dose/g and the “Inflam:Uninfl” value ([1]; Time 35 min) was 3.0.
For “labelled tuftsin: naturally occurring tetrapeptide tuftsin TKPR (Seq. ID no:1) labelled with a radionuclide metal (also: labelled with a radionuclide metal)”, the “accumulation in non-target tissue (gastrointestinal tract), in words” value [2] is listed as “accumulated in the gastrointestinal tract”.
Substance “Pic-Ser-Cys(Acm)-Gly-TKPPR (Picolinoyl-SC(Acm)GTKPPR) [PicSerCys(Acm) Gly TKPPR]” has a Blood ([1]; Time 30 min) of 0.392 % dose/g, a G.I. tract ([1]; Time 30 min) of 5.08 and a Urine ([1]; Time 30 min) of 44.71. For the same substance, the Blood ([1]; Time 180 min) was 0.048 % dose/g, the G.I. tract ([1]; Time 180 min) was 3.71 and the Urine ([1]; Time 180 min) was 80.62. For the same substance, the inflam muscle ([1]; Time 30 min) was 0.154 % dose/g, the inflam muscle ([1]; Time 180 min) was 0.026 % dose/g and the Uninfl muscle ([1]; Time 30 min) was 0.052 % dose/g. The Uninfl muscle ([1]; Time 180 min) was 0.006 % dose/g, the “Inflam:Uninfl” value ([1]; Time 30 min) was 3.6 and the “Inflam:Uninfl” value ([1]; Time 180 min) was 4.7.
With “Pic-Ser-Cys(Acm)-Gly-Asp-Gly-TKPPR (Picolinoyl-SC(Acm)GDGTKPPR) [PicSerCys(Acm) GDG TKPPR]” the Blood ([1]; Time 35 min) was 0.228 % dose/g, the Urine ([1]; Time 35 min) was 63.1 and the inflam muscle ([1]; Time 35 min) was 0.166 % dose/g. The Uninfl muscle ([1]; Time 35 min) was 0.034 % dose/g and the “Inflam:Uninfl” value ([1]; Time 35 min) was 4.9.
“Bz-MA-Ser-Cys-Ser-Gly-Asp-Gly-TKPPR ({Bz‑MA}-SCSGDGTKPPR) [BzMASerCys SGDG- TKPPR]” showed a Blood ([1]; Time 35 min) of 0.483 % dose/g, a Urine ([1]; Time 35 min) of 47.8 and an inflam muscle ([1]; Time 35 min) of 0.226 % dose/g. For the same substance, the Uninfl muscle ([1]; Time 35 min) was 0.057 % dose/g and the “Inflam:Uninfl” value ([1]; Time 35 min) was 4.0.
“PicSerCys(Acm) Gly KPPR: chelator PicSerCys(Acm), linking group Gly, peptide KPPR (Seq ID no: 9); comparison conjugate ({Picolinoyl-Ser-Cys(Acm)}-GKPPR)” showed a Blood ([1]; Time 45 min) of 0.220 % dose/g, a Urine ([1]; Time 45 min) of 43.5 and an inflam muscle ([1]; Time 45 min) of 0.125 % dose/g. The Uninfl muscle ([1]; Time 45 min) was 0.059 % dose/g and the “Inflam:Uninfl” value ([1]; Time 45 min) was 2.1.
For “PicSerCys(Acm) Gly TKPRTKPR: chelator PicSerCys(Acm), linking group Gly, peptide TKPRTKPR (tuftsin dimer, Seq ID no: 10); comparison conjugate ({Picolinoyl-Ser-Cys(Acm)}-GTKPRTKPR)”, the “accumulation in blood, in words” value [1] was “low accumulation”, the “accumulation in the GI tract, in words” value [1] was “low accumulation” and the “urine levels / clearance into the urine, in words” value [1] was “particularly low urine levels”. It also gave a Blood ([1]; Time 35 min) of 0.136 % dose/g, a G.I. tract ([1]; Time 35 min) of 4.2 and a Urine ([1]; Time 35 min) of 16.1. The inflam muscle ([1]; Time 35 min) was 0.071 % dose/g, the Uninfl muscle ([1]; Time 35 min) was 0.022 % dose/g and the “Inflam:Uninfl” value ([1]; Time 35 min) was 3.2.
